Test results reported in patent US20150232556A1 (INNATE PHARMA, published 2015).
Where a chain is given by its changes, count along the chain named.

Legend:
[1] = biological target: T1, wild-type human KIR3DL2 polypeptide (allele *002) (human, UniProt P43630 22-455); test: binding to HEK-293T cells transfected with wild-type KIR3DL2
T1 construct: also called WTaKIR3DL2; unmutated wild type KIR3DL2

[2] = biological target: T2, KIR3DL2 mutant M1 (R13W; A25T; Q27R) (human, UniProt P43630 22-455); test: binding to HEK-293T cells transfected with KIR3DL2 mutant
T2 construct: On transfected HEK-293T cells; also called Mutant 1; Number 1

[3] = biological target: T3, KIR3DL2 mutant M2 (I60N; G62S) (human, UniProt P43630 22-455); test: as above
T3 construct: On transfected HEK-293T cells; also called Mutant 2; Number 2

[4] = biological target: T4, KIR3DL2 mutant M3 (R32H; G33R) (human, UniProt P43630 22-455); test: as above
T4 construct: On transfected HEK-293T cells; also called Mutant 3; Number 3

[5] = biological target: T5, KIR3DL2 mutant M4 (S45I; V47I) (human, UniProt P43630 22-455); test: as above
T5 construct: On transfected HEK-293T cells; also called Number 4

KIR3DL2 mutant M5 (P66T) = biological target: T6, KIR3DL2 mutant M5 (P66T) (human, UniProt P43630 22-455); test: as above
T6 construct: On transfected HEK-293T cells; also called Number 5

[6] = biological target: T7, KIR3DL2 mutant M6 (R78H; L82P) (human, UniProt P43630 22-455); test: as above
T7 construct: On transfected HEK-293T cells; also called Mutant 6; Number 6

[7] = biological target: T8, KIR3DL2 mutant M1 + 2A1 (F50A; R53S) (human, UniProt P43630 22-455); test: as above
T8 construct: On transfected HEK-293T cells; also called Number 33 (1 + 2 A1)

[8] = biological target: T9, KIR3DL2 mutant M1 + 2A5 (S140Q) (human, UniProt P43630 22-455); test: as above
T9 construct: On transfected HEK-293T cells; also called Number 37 (1 + 2 A5)

[9] = biological target: T10, KIR3DL2 mutant M1 + 2 (R13W; A25T; Q27R; I60N; G62S) (human, UniProt P43630 22-455); test: as above
T10 construct: On transfected HEK-293T cells; also called Number 30 (1 + 2)

[10] = biological target: T11, KIR3DL2 mutant MD0/HLA1 (F9S; S11A) (human, UniProt P43630 22-455); test: as above
T11 construct: On transfected HEK-293T cells; also called Number 31 (DO-HLA1)

[11] = biological target: T12, KIR3DL2 mutant MD0/HLA2 (H29S; F34A) (human, UniProt P43630 22-455); test: as above
T12 construct: On transfected HEK-293T cells; also called Number 32 (DO-HLA2)

[12] = biological target: T13, KIR3DL2 mutant M1 + 2A3 (P14S; S15A; H23S) (human, UniProt P43630 22-455); test: binding to HEK-293T cells transfected with KIR3DL2 mutant; '-' = substantially complete loss of binding
T13 construct: On transfected HEK-293T cells; also called mutant 2A3; Number 35 (1 + 2 A3)

[13] = biological target: T3, KIR3DL2 mutant M2 (I60N; G62S); test: as above
[14] = biological target: T10, KIR3DL2 mutant M1 + 2 (R13W; A25T; …); test: as above
[15] = biological target: T13, KIR3DL2 mutant M1 + 2A3 (P14S; S15A; …); test: binding to HEK-293T cells transfected with KIR3DL2 mutant
[16] = biological target: T2, KIR3DL2 mutant M1 (R13W; A25T; Q27R); test: binding to HEK-293T cells transfected with KIR3DL2 mutant; '-' = substantially complete loss of binding
[17] = biological target: T14, KIR3DL2 mutant M12 (I196A; L199A; N285A; S286A) (human, UniProt P43630 22-455); test: binding to HEK-293T cells transfected with KIR3DL2 mutant
T14 construct: On transfected HEK-293T cells; also called Mutant 12; Number 12

[18] = biological target: T15, KIR3DL2 mutant M13 (T212A; N218A) (human, UniProt P43630 22-455); test: as above
T15 construct: On transfected HEK-293T cells; also called Number 13

[19] = biological target: T16, KIR3DL2 mutant M17 (P249A) (human, UniProt P43630 22-455); test: as above
T16 construct: On transfected HEK-293T cells; also called Mutant 17; Number 17

[20] = biological target: T17, KIR3DL2 mutant M18 (A278H; L279A; C281A; V282A) (human, UniProt P43630 22-455); test: as above
T17 construct: On transfected HEK-293T cells; also called Number 18

[21] = biological target: T18, KIR3DL2 mutant M19 (A278H; L279S; V282E) (human, UniProt P43630 22-455); test: as above
T18 construct: On transfected HEK-293T cells; also called Number 19

[22] = biological target: T19, KIR3DL2 mutant M21 (C281Y; C315P) (human, UniProt P43630 22-455); test: as above
T19 construct: On transfected HEK-293T cells; also called Number 21

[23] = biological target: T20, KIR3DL2 mutant M14 (W226A) (human, UniProt P43630 22-455); test: binding to HEK-293T cells transfected with KIR3DL2 mutant; '-' = substantially complete loss of binding
T20 construct: On transfected HEK-293T cells; also called Mutant 14; Number 14

Measured: binding result

B1: antibody 1E2 (antibody, V domains shown)
VH: QVQLQQSGAELVRPGVSVKISCKGSGYTFTDYAMNWVKQSHAKSLEWIGVISTYYGDANYNQKFKGKATMTVDKSSSTAYMELARLTSEDSAIYYCALIYYDYDGSYWGQGTTLTVS
VL: DVVMTQTPLSLPVSLGDQASISCRSSQSLVHSNGNTYLHWYLQKPGQSPKLLIYKVSNRFSGVPDRFSGSGSGTDFTLKISRVEAEDLGVYFCSQSTHVPPYTFGGGTKLEIK
notes: Parental murine monoclonal antibody
no binding: [12]
binds: [1] | [2] | [3] | [4] | [5] | KIR3DL2 mutant M5 (P66T) | [6] | [7] | [8] | [9] | [10] | [11]

B2: antibody 10F6 (antibody, V domains shown)
VH: QIQLVQSGPELKKPGETVRISCKASGYTFTIAGMQWVQKMPGKGLKWIGWINTHSGVPKYAEDFKGRFAFSLETSANIAYLQISNLKNEDTATYFCARGGDEGVMDYWGQGTSVTVS
VL: DIVMTQSHKFMSTSVGDRVSITCKASQDVSTAVAWYHQKPGQSPKLLIYWASTRHTGVPDRFSGSGSGTDYTLTISALQAEDLALYYCQQHYNTPWTFGGGTKLEIK
notes: as for B1
no binding: [13] | [14]
binds: [1] | [2] | [4] | [5] | KIR3DL2 mutant M5 (P66T) | [6] | [7] | [8] | [10] | [11]

B3: antibody 2B12 (antibody, V domains shown)
VH: B2 VH with I31T, M40T, T53S, N77S, I78T, N85T
VL: B2 VL with V15L, I21F, H37Q, A51T, S63T, A77S, L78V, N93S
notes: as for B1
no binding: [13] | [14]
binds: [1] | [2] | [4] | [5] | KIR3DL2 mutant M5 (P66T) | [6] | [7] | [8] | [10] | [11]

B4: antibody 13H1 (antibody, V domains shown)
VH: EVQLQQSGPELVKPGASMKISCKASHYSFIGYTMNWVKQRHGKNLEWIGLINPYNGDTTYNQKFKGKASLTVDKSSSTAYMEILSLTSEDSAVYYCARENWGYPYAMDYWGQGTSVTVS
VL: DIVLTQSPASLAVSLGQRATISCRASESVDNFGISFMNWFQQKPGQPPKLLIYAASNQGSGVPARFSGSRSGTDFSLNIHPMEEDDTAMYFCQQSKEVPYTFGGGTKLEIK
notes: as for B1
binds: [4] | [5] | [6] | [7] | [15]
no binding: [16] | [13] | [14]

B5: antibody 1C3 (antibody, V domains shown)
VH: QVQLQQSGAELARPGASVKLSCKASGYTFTSYWMQWVKQRPGQGLEWIGAIYPGDGDTRYTQKFKGKATLTADKSSSTAYMQLSSLASEDSAVYYCARRYDGYYHFDYWGQGTTLTVS
VL: DIVMTQSPSSLAVTAGEKVTMSCKSSQSLLWSVNQKNYLSWYQQKQRQPPKLLIYGASIRESWVPDRFTGSGSGTDFTLTISNVHAEDLAVYYCQHNHGSFLPLTFGSGTKLEIK
notes: Parental murine monoclonal antibody; also called 1C3 MAb
no binding: [23]
binds: [1] | [17] | [18] | [19] | [20] | [21] | [22]

B6: antibody 20E9 (antibody, V domains shown)
VH: QVQLQQSGAEVARPGASVKLSCKSSGFTFTTYWMQWVKQRPGQGLEWIGAIYPGDGDTRYTQKFKGKATLTADKSSITAYMQLSSLASEDSAVYYCARRGDYGNYGMDYWGQGTSVTVSS
VL: DVLMTQTPLSLPVSLGDQASISCRSSQSIVHSNGNTYLEWYLQKPGQSPKLLIYKVSNHFSGVPDRFSGSGSGTDFTLKISRVEAEDLGVYYCFQGSHVPPTFGGGTKLEIK
notes: as for B1
binds: [1] | [17] | [18] | [19] | [20] | [21] | [22]
no binding: [23]
